{"source": "patent US8337813B2", "about": "“Contrast agents” (Northwestern University, priority 2007, dated 2012)", "target": "T1, human recombinant MMP-7 (Homo sapiens, UniProt P09237)", "T1 sequence (P09237 95-267)": "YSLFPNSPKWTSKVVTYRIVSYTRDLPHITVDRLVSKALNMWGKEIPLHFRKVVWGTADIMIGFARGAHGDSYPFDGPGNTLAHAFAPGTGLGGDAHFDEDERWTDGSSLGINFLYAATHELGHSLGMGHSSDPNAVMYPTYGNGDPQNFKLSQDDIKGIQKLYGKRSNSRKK", "assay": "Enzymatic cleavage by MMP-7, analysed by ESI-MS", "format": "biochemical", "procedure": "During development of embodiments of the present invention, a 2 μL aliquot of human recombinant MMP-7 was thawed on ice, diluted to 50 μL with assay buffer containing 1 mM APMA, and incubated for 1 hour at 37° C. to activate the enzyme. To the activated enzyme solution was added 1 μL of a 20 mM solution of gadolinium(III)-diethylenetriaminepentaacetic acid-Ala-Pro-Leu-Ala-Leu-Trp-Ala-PEG3-Ala. The solution was incubated at 37° C. for 24 hours after which 10 μL was dissolved in 50 μL MeOH for analysis by ESI-MS.\n1542.75; found negative mode 771.60, (m/2)]", "note": "Non-standard residues stand in square brackets, D forms with d. Primed or numbered codes have the meaning given here. No end group written: not given here. *: point of attachment. DTPA′ = diethylenetriaminepentaacetic acid (Gd(III) complex) N-cap, O=C([O-])CN(CCN(CC(=O)[O-])CC(=O)[O-])CCN(CC(=O)[O-])CC(=O)*.[Gd+3]; PEG3′ = not defined here"}
{"substance": "Gadolinium(III)-diethylenetriaminepentaacetic Acid-Ala-Pro-Leu-Ala-Leu-Trp-Ala-PEG3-Ala ({DTPA′}-APLALWA[PEG3′]A; also: Gd(III) complexed by DTPA)", "values": [{"measurement": "cleavage by MMP-7 (ESI-MS)", "setting": "activated MMP-7, 37° C., 24 hours", "result": "revealed a peak corresponding to the MMP-7 cleavage fragment Leu-Trp-Ala-PEG3-Ala"}, {"measurement": "ESI-MS of control solution lacking MMP-7", "setting": "no MMP-7", "result": "revealed only the expected uncleaved"}]}
